Assay results from patent US11795460B2, “Compositions and methods for TTR gene editing and treating ATTR amyloidosis” (Intellia Therapeutics, Inc., priority 2017, dated 2023).
Strand notation (5' to 3'): a small letter for the sugar, then the base; units joined by * are phosphorothioate-linked, units joined directly phosphodiester-linked; [ ] holds rarer units or linkages, { } end groups; capitals alone tell only the bases. m = 2'-O-methyl; r = 2'-OH (RNA)

Tests used:
TTR = TTR editing in primary cyno hepatocytes electroporated with Spy Cas9 protein and sgRNAs (Tables 14, 15); format: cell-based, cynomolgus monkey; details: Table 14; primary cyno hepatocytes electroporated with Spy Cas9 protein (RNP) and sgRNAs
How it was run: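 Spy Cas9 RNPs with boiled sgRNAs electroporated (Lonza P3 buffer, program EX-147) into primary cynomolgus hepatocytes; harvest at 24, 48 or 72 h. TTR target site PCR-amplified and sequenced on Illumina MiSeq, reads aligned to mf5; percent editing is reads with indels or substitutions over total reads.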

TTR mRNA = TTR mRNA knockdown in primary human hepatocytes by quantitative PCR (Tables 34, 35); format: cell-based; details: TTR mRNA in PHH; LNP dose 300 ng mRNA cargo; gRNA:mRNA 1:2; 96 hours after treatment; biological triplicates; vs untreated control
Description: In one experiment, PHH were cultured and treated with LNPs comprising Cas9 mRNA (SEQ ID NO:1) and a gRNA of interest (See FIG. 29, Table 34), as described in Example 4. The LNPs were prepared using the cross-flow procedure described above and purified and concentrated using PD-10 columns and Amicon centrifugal filter units, respectively. The LNPs were formulated with an N:P ratio of 6.0 and contained Lipid A, Cholesterol, DSPC, and PEG2k-DMG in a 50:38:9:2 molar ratio, respectively. The LNPs comprised a gRNA:mRNA ratio of 1:2, and the cells were treated at a dose of 300 ng (with respect to the amount of mRNA cargo delivered).
(§1) Ninety-six (96) hours following LNP treatment (with biological triplicates for each condition), mRNA was purified from PHH cells using the Dynabeads mRNA DIRECT Kit (ThermoFisher Scientific) according to the manufacturer's protocol. Reverse Transcription (RT) was performed with Maxima reverse transcriptase (ThermoFisher Scientific) and a poly-dT primer. The resulting cDNA was purified with Ampure XP Beads (Agencourt). For Quantitative PCR, 2% of the purified cDNA was amplified with Taqman Fast Advanced Mastermix and 3 Taqman probe sets, TTR (Assay ID: Hs00174914_m1), GAPDH (Assay ID: Hs02786624_g1), and PPIB (Assay ID: Hs00168719_m1). The assays were run on the QuantStudio 7 Flex Real Time PCR System according to the manufacturer's instructions (Life Technologies). Relative expression of TTR mRNA was calculated by normalizing to the endogenous controls (GAPDH and PPIB) individually, and then averaged.
In a separate experiment, TTR mRNA knockdown was evaluated following treatment with LNPs comprising G000480, G000486, and G000502. The LNPs were formulated and PHH were cultured and treated with the LNPs, each as described in the experiment above in this Example with the exception that the cells were treated at a dose of 100 ng (with respect to the amount of mRNA cargo delivered).
as §1, with “(single treatment” for “(with biological triplicates”, “the High Capacity cDNA Reverse Transcription Kit” for “Maxima reverse transcriptase”, “according to the manufacturer's instructions.” for “and a poly-dT primer. The resulting cDNA was purified with Ampure XP Beads (Agencourt).”, “the” for “the purified”

B1: G000500: TTR sgRNA modified sequence, Human, SEQ ID No. 107; guide sequence of CR003337 (nucleic acid)
guide: mC*mC*mA*rGrUrCrCrArGrCrArArGrGrCrArGrArGrGrGrUrUrUrUrArGrAmGmCmUmAmGmAmAmAmUmAmGmCrArArGrUrUrArArArArUrArArGrGrCrUrArGrUrCrCrGrUrUrArUrCrAmAmCmUmUmGmAmAmAmAmAmGmUmGmGmCmAmCmCmGmAmGmUmCmGmGmUmGmCmU*mU*mU*mU
TTR
  Avg % Deletion: 2.63%
  Avg % Edit: 45.20%
  Avg % Insert: 42.60%
TTR mRNA
  Avg % Knockdown: 92.90%

B2: G000490: TTR sgRNA modified sequence, Human, SEQ ID No. 97; guide sequence of CR003366 (nucleic acid)
guide: mA*mA*mA*rUrArGrArCrArCrCrArArArUrCrUrUrArCrGrUrUrUrUrArGrAmGmCmUmAmGmAmAmAmUmAmGmCrArArGrUrUrArArArArUrArArGrGrCrUrArGrUrCrCrGrUrUrArUrCrAmAmCmUmUmGmAmAmAmAmAmGmUmGmGmCmAmCmCmGmAmGmUmCmGmGmUmGmCmU*mU*mU*mU
TTR
  Avg % Deletion: 7.27%
  Avg % Edit: 61.67%
  Avg % Insert: 54.47%
TTR mRNA
  Avg % Knockdown: 78.34%

B3: G000493: TTR sgRNA modified sequence, Human, SEQ ID No. 100; guide sequence of CR003368 (nucleic acid)
guide: mA*mA*mG*rUrGrCrCrUrUrCrCrArGrUrArArGrArUrUrGrUrUrUrUrArGrAmGmCmUmAmGmAmAmAmUmAmGmCrArArGrUrUrArArArArUrArArGrGrCrUrArGrUrCrCrGrUrUrArUrCrAmAmCmUmUmGmAmAmAmAmAmGmUmGmGmCmAmCmCmGmAmGmUmCmGmGmUmGmCmU*mU*mU*mU
TTR
  Avg % Deletion: 2.10%
  Avg % Edit: 50.13%
  Avg % Insert: 48.07%
TTR mRNA
  Avg % Knockdown: 87.53%
